Test results: paper PMC5372246, “Co-production of hydrogen and ethanol from glucose in Escherichia coli by activation of pentose-phosphate pathway through deletion of phosphoglucose isomerase (pgi) and overexpression of glucose-6-phosphate dehydrogenase (zwf) and 6-phosphogluconate dehydrogenase (gnd)” (Biotechnology for Biofuels, 2017)

Tested on: T1, NC(=O)c1ccc[n+]([C@@H]2O[C@H](COP(=O)(O)OP(=O)(O)OC[C@H]3O[C@@H](n4cnc5c(N)ncnc54)[C@H](OP(=O)(O)O)[C@@H]3O)[C@@H](O)[C@H]2O)c1
T1 construct: full-length, C-terminal His-tag, Ni-NTA purified from E. coli, 55 kDa on SDS-PAGE
Test: purified protein
Type: biochemical, Escherichia coli
Conditions: co-substrate glucose-6-phosphate, general assay: Tris-HCl pH 7.5, 1 mM MgCl2, 30 °C

## Zwf (ZE), glucose-6-phosphate dehydrogenase (Escherichia coli K-12)
  Km: 15 µM
